# In patent US20230227406:
# Molecular target: PTEN (substrate in the in vitro ubiquitination reaction) (UniProt P60484)
# Sequence (P60484 whole entry): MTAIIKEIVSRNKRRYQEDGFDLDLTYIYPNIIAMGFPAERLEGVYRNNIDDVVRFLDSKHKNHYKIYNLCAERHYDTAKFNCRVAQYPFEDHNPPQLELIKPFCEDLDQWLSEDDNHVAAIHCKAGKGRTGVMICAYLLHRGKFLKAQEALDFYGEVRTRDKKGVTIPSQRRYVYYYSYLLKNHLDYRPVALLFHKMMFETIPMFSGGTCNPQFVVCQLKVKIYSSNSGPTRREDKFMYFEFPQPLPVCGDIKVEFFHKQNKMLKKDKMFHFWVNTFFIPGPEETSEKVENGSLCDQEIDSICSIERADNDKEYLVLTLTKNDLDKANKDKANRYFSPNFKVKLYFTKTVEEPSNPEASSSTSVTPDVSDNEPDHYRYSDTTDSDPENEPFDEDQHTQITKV
substance,measurement,value
"WWP1 ligase (recombinant, Ubiquigent #63-0034-025)","in vitro ubiquitination reaction, TMT LC-MS/MS of ubiquitin sites on PTEN","Specific ubiquitin sites on PTEN demonstrate greater occupancy (e.g., K237 and K342) when K27-only ubiquitin is used in the reaction vs wild type ubiquitin"
same,"in vitro ubiquitination reaction, western blot using an anti-ubiquitin antibody","in the presence of K27 only ubiquitin, PTEN substrate ubiquitin is preferred. PTEN is readily ubiquitinated with non-chain forming ubiquitin"
